Data from publication PMC5600724.

Biological target: recombinant Plasmodium vivax apical membrane antigen 1 ectodomain (rPvAMA1) (Plasmodium vivax)
Assay: ELISA; phage ELISA: wells coated with rPvAMA1 (100 ug/ml in 0.1 M NaHCO3, pH 8.6), blocked with BSA; ~10^9 phage in TBST, 2 h at room temperature; HRP anti-M13 antibody, ABTS, A405; fold = absorbance on target / absorbance on BSA-blocked well

WHWSWWNPNQLT [PdV2 phage-displayed dodecapeptide]
fold of binding signal (A405 on rPvAMA1 over A405 on BSA): 3.5 fold

TSVSYINNRHNL [PdV3 phage-displayed dodecapeptide]
fold of binding signal (A405 on rPvAMA1 over A405 on BSA): 3.1 fold
